# Test results reported in PMC5047623 (PLoS ONE, 2016).
# B1: recombinant human Tie1 (rhTie1) extracellular domain, Fc tagged (Fc fusion, UniProt P35590 22-759, looked up)
# chain: AVDLTLLANLRLTDPQRFFLTCVSGEAGAGRGSDAWGPPLLLEKDDRIVRTPPGPPLRLARNGSHQVTLRGFSKPSDLVGVFSCVGGAGARRTRVIYVHNSPGAHLLPDKVTHTVNKGDTAVLSARVHKEKQTDVIWKSNGSYFYTLDWHEAQDGRFLLQLPNVQPPSSGIYSATYLEASPLGSAFFRLIVRGCGAGRWGPGCTKECPGCLHGGVCHDHDGECVCPPGFTGTRCEQACREGRFGQSCQEQCPGISGCRGLTFCLPDPYGCSCGSGWRGSQCQEACAPGHFGADCRLQCQCQNGGTCDRFSGCVCPSGWHGVHCEKSDRIPQILNMASELEFNLETMPRINCAAAGNPFPVRGSIELRKPDGTVLLSTKAIVEPEKTTAEFEVPRLVLADSGFWECRVSTSGGQDSRRFKVNVKVPPVPLAAPRLLTKQSRQLVVSPLVSFSGDGPISTVRLHYRPQDSTMDWSTIVVDPSENVTLMNLRPKTGYSVRVQLSRPGEGGEGAWGPPTLMTTDCPEPLLQPWLEGWHVEGTDRLRVSWSLPLVPGPLVGDGFLLRLWDGTRGQERRENVSSPQARTALLTGLTPGTHYQLDVQLYHCTLLGPASPPAHVLLPPSGPPAPRHLHAQALSDSEIQLTWKHPEALPGPISKYVVEVQVAGGAGDPLWIDVDRPEETSTIIRGLNASTRYLFRMRASIQGLGDWSNTVEESTLGNGLQAEGPVQESRAAEEGLDQ
# notes: human Tie1, full extracellular domain; amine-coupled to a GLC sensor chip; also called immobilized Tie1
# Biological target: T1, purified α5ß1 ectodomain protein (human, UniProt P08648 42-995; P05556 21-728)
# T1 construct: signal peptide in the construct; human integrin alpha-5, residues 1-995; human integrin beta-1, residues 1-728; Thrombin cleavage site between the integrin and the Fc; residues of the site may remain; also called purified and untagged α5ß1; α5ß1 integrin; not shown: Fc, C-terminal, cleaved
# T1 sequence (P08648 42-995, chain 1 of 2): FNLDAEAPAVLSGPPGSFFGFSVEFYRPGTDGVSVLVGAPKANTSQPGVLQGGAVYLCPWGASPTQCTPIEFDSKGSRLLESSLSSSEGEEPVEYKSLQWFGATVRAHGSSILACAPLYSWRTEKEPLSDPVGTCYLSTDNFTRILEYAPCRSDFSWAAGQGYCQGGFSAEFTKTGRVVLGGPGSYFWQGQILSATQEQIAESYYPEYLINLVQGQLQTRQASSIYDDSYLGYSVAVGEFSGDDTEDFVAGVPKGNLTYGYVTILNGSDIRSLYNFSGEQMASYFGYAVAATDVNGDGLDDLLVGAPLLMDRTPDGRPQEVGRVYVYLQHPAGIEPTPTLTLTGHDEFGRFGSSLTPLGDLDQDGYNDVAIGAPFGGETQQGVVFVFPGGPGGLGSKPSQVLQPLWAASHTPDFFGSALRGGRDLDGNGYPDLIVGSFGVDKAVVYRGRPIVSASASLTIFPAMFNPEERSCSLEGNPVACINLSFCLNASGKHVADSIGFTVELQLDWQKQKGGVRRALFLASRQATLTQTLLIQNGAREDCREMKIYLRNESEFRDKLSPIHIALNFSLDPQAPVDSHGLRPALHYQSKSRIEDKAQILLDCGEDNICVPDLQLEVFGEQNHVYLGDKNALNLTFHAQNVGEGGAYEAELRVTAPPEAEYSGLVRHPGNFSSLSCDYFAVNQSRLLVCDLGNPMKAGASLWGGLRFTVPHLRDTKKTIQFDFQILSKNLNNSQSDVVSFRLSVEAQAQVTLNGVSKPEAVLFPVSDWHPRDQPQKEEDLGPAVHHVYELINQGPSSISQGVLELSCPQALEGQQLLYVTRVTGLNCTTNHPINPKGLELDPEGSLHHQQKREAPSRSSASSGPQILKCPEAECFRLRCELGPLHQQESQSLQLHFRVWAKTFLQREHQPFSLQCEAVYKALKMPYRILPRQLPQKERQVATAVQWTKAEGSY
# T1 sequence (P05556 21-728, chain 2 of 2): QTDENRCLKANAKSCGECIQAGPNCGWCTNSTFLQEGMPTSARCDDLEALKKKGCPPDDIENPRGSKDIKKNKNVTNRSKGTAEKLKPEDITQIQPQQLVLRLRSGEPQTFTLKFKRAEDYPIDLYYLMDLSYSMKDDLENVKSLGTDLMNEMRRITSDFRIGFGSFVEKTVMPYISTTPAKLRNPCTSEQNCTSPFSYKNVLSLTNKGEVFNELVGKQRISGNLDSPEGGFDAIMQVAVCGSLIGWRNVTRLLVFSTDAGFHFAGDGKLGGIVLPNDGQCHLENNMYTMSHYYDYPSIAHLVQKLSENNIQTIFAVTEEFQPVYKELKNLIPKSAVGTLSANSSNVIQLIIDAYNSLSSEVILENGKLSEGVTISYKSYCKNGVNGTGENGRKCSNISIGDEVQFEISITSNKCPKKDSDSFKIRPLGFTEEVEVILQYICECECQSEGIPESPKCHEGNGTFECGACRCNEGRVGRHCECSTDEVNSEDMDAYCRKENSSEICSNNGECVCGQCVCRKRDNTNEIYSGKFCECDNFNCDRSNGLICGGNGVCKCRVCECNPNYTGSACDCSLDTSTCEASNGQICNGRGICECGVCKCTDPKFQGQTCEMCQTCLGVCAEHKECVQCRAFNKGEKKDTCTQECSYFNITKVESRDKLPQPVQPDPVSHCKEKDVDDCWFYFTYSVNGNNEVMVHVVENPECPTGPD
# Experiment: SPR; ProteOn XPR36, GLC chip; rhTie1 (4750 RU) and rhTie2 (6400 RU) amine-coupled; α5ß1 at 3 μM flowed at 60 μL/min for 3 min; 25 degrees Celsius; 20 mM Tris, 100 mM NaCl, 1 mM MnCl2, 2 mM CaCl2 pH 7.5; BSA channel subtracted
# Settings: both partners purified
binder,measurement,value
B1,binding result,binds
